Experimental data as given in patent US20190359693A1.

Experiments:
Assay in all cases: cell-based or functional assay
[1] = target: hemagglutinin (HA) of influenza virus H5N1 A/Indonesia/5/05 (influenza A virus)
[2] = target: hemagglutinin (HA) of influenza virus H10N7 A/Chick/Germany/N/49 (influenza A virus)
[3] = target: hemagglutinin (HA) of influenza virus H3N2 A/Johannesburg/33/94 (influenza A virus)
[4] = target: hemagglutinin (HA) of influenza virus H9N2 A/HK/466419/09 (influenza A virus)
[5] = target: hemagglutinin (HA) of influenza virus H3N2 A/Brisbane/10/07 (influenza A virus)
[6] = target: hemagglutinin (HA) of influenza virus H8N2 A/Env/MPJ1258/09 (influenza A virus)
[7] = target: hemagglutinin (HA) of influenza virus H1N1 A/Puerto Rico/8/34-MA (influenza A virus)
[8] = target: hemagglutinin (HA) of influenza B/Florida/04/06 (Yamagata) (influenza B virus)
[9] = target: hemagglutinin (HA) of influenza virus H3N2 A/Perth/16/09 (influenza A virus)
[10] = target: hemagglutinin (HA) of influenza virus H7N7 A/Northern Shoveler/MPF518/08 (influenza A virus)
[11] = target: hemagglutinin (HA) of influenza virus B/Massachusetts/02/12 (Yamagata) (influenza B virus)
[12] = target: hemagglutinin (HA) of influenza virus H12N5 A/Env/MPK659/09 (influenza A virus)
[13] = target: hemagglutinin (HA) of influenza virus H2N2 A/Guiyang/1/57 (influenza A virus)
[14] = target: hemagglutinin (HA) of influenza virus H9N2 A/Great Cormorant/MP2934/04 (influenza A virus)
[15] = target: hemagglutinin (HA) of influenza virus H6N8 A/Eurasian Wigeon/MPD411/07 (influenza A virus)
[16] = target: hemagglutinin (HA) of influenza virus H1N1 A/Brisbane/59/07 (influenza A virus)
[17] = target: hemagglutinin (HA) of influenza virus H1N1 A/California/07/09 (influenza A virus)
[18] = target: hemagglutinin (HA) of influenza virus H3N2 A/Victoria/210/09 (influenza A virus)
[19] = target: hemagglutinin (HA) of influenza virus H1N1 A/Solomon Islands/3/2006 (IVR 145) (influenza A virus)
[20] = target: hemagglutinin (HA) of influenza virus H8N4 A/Eurasian Wigeon/MPH571/08 (influenza A virus)
[21] = target: hemagglutinin (HA) of influenza virus H11N9 A/Northern Pintail/MPC2085/07 (influenza A virus)
[22] = target: hemagglutinin (HA) of influenza virus H7N7 A/Netherlands/219/2003 (influenza A virus)
[23] = target: hemagglutinin (HA) of influenza virus H14N5 A/Mallard/Astrakhan/263/1982 (influenza A virus)
[24] = target: hemagglutinin (HA) of influenza B/Brisbane/60/08 (Victoria) (influenza B virus)
[25] = target: hemagglutinin (HA) of influenza virus H3N2 A/Fukui/45/04 (influenza A virus)
[26] = target: hemagglutinin (HA) of influenza virus H3N2 A/Hiroshima/52/05 (influenza A virus)
[27] = target: hemagglutinin (HA) of influenza virus H1N1 A/WSN/33 (influenza A virus) (UniProt P03454)
[28] = target: hemagglutinin (HA) of influenza virus B/Lee/40 (Old) (influenza B virus) (UniProt P03460)
Sequence of hemagglutinin (HA) of influenza virus B/Lee/40 (Old) (influenza B virus) (P03460 16-584 limits assumed): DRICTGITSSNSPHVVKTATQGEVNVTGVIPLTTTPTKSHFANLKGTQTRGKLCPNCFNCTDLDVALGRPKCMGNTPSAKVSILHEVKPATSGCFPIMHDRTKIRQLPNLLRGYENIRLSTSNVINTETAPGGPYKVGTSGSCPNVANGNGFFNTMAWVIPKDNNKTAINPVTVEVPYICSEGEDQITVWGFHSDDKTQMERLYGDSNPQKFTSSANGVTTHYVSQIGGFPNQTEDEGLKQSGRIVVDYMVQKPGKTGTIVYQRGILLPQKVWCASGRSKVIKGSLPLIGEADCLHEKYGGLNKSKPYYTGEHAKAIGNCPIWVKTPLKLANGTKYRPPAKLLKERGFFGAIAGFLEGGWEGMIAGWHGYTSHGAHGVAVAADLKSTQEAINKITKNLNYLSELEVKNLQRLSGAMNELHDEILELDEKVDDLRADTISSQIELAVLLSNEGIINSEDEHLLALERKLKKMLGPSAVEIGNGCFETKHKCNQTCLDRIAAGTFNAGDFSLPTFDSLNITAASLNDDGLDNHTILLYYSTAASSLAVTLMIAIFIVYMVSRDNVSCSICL

[29] = target: hemagglutinin (HA) of influenza virus H7N7 A/Common Teal/MPF139/07 (influenza A virus)
[30] = target: hemagglutinin (HA) of influenza virus H4 A/WF/HK/MPA892/06 (influenza A virus)
[31] = target: hemagglutinin (HA) of influenza virus H10N8 A/Jiangxi/346/2013 (influenza A virus)
[32] = target: hemagglutinin (HA) of influenza virus H7N7 A/PR8 H7N7-NY (influenza A virus)
[33] = target: hemagglutinin (HA) of influenza virus H5N1 A/PR8 H5N1 HK97 (influenza A virus)
[34] = target: hemagglutinin (HA) of influenza virus H4N1 A/Northern Pintail/MPB1368/06 (influenza A virus)
[35] = target: hemagglutinin (HA) of influenza virus H10N9 A/Northern Shoveler/MPE2531/08 (influenza A virus)
[36] = target: hemagglutinin (HA) of influenza virus H1N1 A/Christchurch/16/10 (influenza A virus)
[37] = target: hemagglutinin (HA) of influenza virus H3N2 A/HK/1174/99 (influenza A virus)
[38] = target: hemagglutinin (HA) of influenza virus H7N9 A/Anhui/1/13 (influenza A virus)
[39] = target: hemagglutinin (HA) of influenza virus H1N1 A/HK/54/98 (influenza A virus)
[40] = target: hemagglutinin (HA) of influenza virus H3N2 A/Aichi/2/68 (influenza A virus) (UniProt P03437)
[41] = target: hemagglutinin (HA) of influenza virus H7N3 A/NIBRG/60 (A/mallard/Netherlands/12/00) (influenza A virus)
[42] = target: hemagglutinin (HA) of influenza virus H1N1 A/New Caledonia/20/99 (influenza A virus)
[43] = target: hemagglutinin (HA) of influenza virus H3N2 A/Panama/2007/99 (influenza A virus)
[44] = target: hemagglutinin (HA) of influenza virus B/Harbin/7/94 (Yamagata) (influenza B virus)

B1: MD2407 (bispecific antibody)
chain: EVQLVESGGGLVQPGGSLRLSCAVSISIFDIYAMDWYRQAPGKQRDLVATSFRDGSTNYADSVKGRFTISRDNAKNTLYLQMNSLKPEDTAVYLCHVSLYRDPLGVAGGMGVYWGKGALVTVSSGGGGSGGGGSEVQLVESGGGLVQAGGSLKLSCAASGRTYAMGWFRQAPGKEREFVAHINALGTRTYYSDSVKGRFTISRDNAKNTEYLEMNNLKPEDTAVYYCTAQGQWRAAPVAVAAEYEFWGQGTQVTVSSGGGGSGGGGSEVQLVESGGGLVQPGGSLRLSCAATGFTLENKAIGWFRQTPGSEREGVLCISKSGSWTYYTDSMRGRFTISRDNAENTVYLQMDSLKPEDTAVYYCATTTAGGGLCWDGTTFSRLASSWGQGTQVTVSSGGGGSGGGGSEVQLVESGGGLVQPGGSLKLSCAASGFTFSTSWMYWLRQAPGKGLEWVSVINTDGGTYYADSVKDRFTISRDNAKDTLYLQMSSLKSEDTAVYYCAKDWGGPEPTRGQGTQVTVSS
[1]
  average neutralization titer: 16.2 nM
[2]
  average neutralization titer: 13.2 nM
[3]
  average neutralization titer: 11.6 nM
[4]
  average neutralization titer: 53.9 nM
[5]
  average neutralization titer: 10.6 nM
[6]
  average neutralization titer: 8.8 nM
[7]
  average neutralization titer: 7.3 nM
[8]
  ADCC induction (EC50 grade, FcγRIIIa reporter bioassay): > 0.5 µg/mL
[9]
  average neutralization titer: 8.1 nM
[10]
  average neutralization titer: 36.1 nM
[11]
  average neutralization titer: 3 nM
[12]
  average neutralization titer: > 1000 nM
[13]
  average neutralization titer: 126 nM
[14]
  average neutralization titer: 19.6 nM
[15]
  average neutralization titer: 20.9 nM
[16]
  average neutralization titer: 3.7 nM
[17]
  average neutralization titer: 3.4 nM
[18]
  average neutralization titer: 6.5 nM
[19]
  average neutralization titer: 5.4 nM
[20]
  average neutralization titer: 15.1 nM
[21]
  average neutralization titer: 34.5 nM
[22]
  average neutralization titer: 33 nM
[23]
  average neutralization titer: 19.2 nM
[24]
  ADCC induction (EC50 grade, FcγRIIIa reporter bioassay): > 0.5 µg/mL
[25]
  average neutralization titer: 19.2 nM
[26]
  average neutralization titer: 10.5 nM
[27]
  average neutralization titer: 4.8 nM
[28]
  average neutralization titer: 18.4 nM
[29]
  average neutralization titer: 57.4 nM
[30]
  average neutralization titer: 6.8 nM
[31]
  average neutralization titer: 30.4 nM
[32]
  average neutralization titer: 22.3 nM
[33]
  average neutralization titer: 3.6 nM
[34]
  average neutralization titer: 8.2 nM
[35]
  average neutralization titer: 35 nM
[36]
  average neutralization titer: 1.3 nM
[37]
  average neutralization titer: 76 nM
[38]
  average neutralization titer: 64.6 nM
[39]
  average neutralization titer: 10.3 nM
[40]
  average neutralization titer: 9.9 nM
[41]
  average neutralization titer: 13.8 nM
[42]
  average neutralization titer: 5.7 nM
[43]
  average neutralization titer: 14.9 nM
[44]
  average neutralization titer: 6.4 nM
